Bridges are numbered along the chain shown (N, C = ends). Where no end group is shown, it is not given here.
Assay: Corrosion resistance (Icorr, Ecorr, corrosion rate, Rp) of coated stainless steel
Type: physicochemical
Conditions: pilin conjugates on stainless steel

For “E-PAK: pilin peptide conjugated to an E-coil (negatively charged leucine zipper) peptide (DGLWKCTSDQDEQFIPKGCSR; disulfide 6-19; also: conjugated to E-coil peptide)”, the “Corrosion Rate” value (Unmodified 0.0547) was 0.1981 mpy, the Ecorr (Unmodified 4.2) was 87.2 mV and the Rp (Unmodified 303.141) was 121.722 Ohms/cm^2. The Icorr (Unmodified 802) was 1940 nAmps.
